This note sets out measurements from patent US9005963B2, “Amino acid sequences directed against cellular receptors for viruses and bacteria” (Ablynx N.V., priority 2008, dated 2015).

The target in assay [1] is T1, CXCR4 (Homo sapiens, UniProt P61073). As to the kind of experiment: Binding of 125I-labeled Nanobodies to membranes from HEK293T cells expressing CXCR4 compared to CXCR3. The arrangement: expressed in transfected cells; host or cells: HEK293T, transient (pcDNA3.1-CXCR4). As for the experimental part: (§1) Membranes from HEK293T cells transiently expressing CXCR3 or CXCR4 were prepared 48 h after transfection as follows. Cells were washed and scraped from the cell culture dishes with ice-cold PBS containing 1 mm EDTA. The scraped cells were pelleted at 1500×g for 10 min at 4° C. The pellet was washed and then resuspended in ice-cold membrane buffer (15 mM Tris, pH 7.5, 1 mM EGTA, 0.3 mM EDTA, and 2 mM MgCl2). The cell suspension was homogenized by 10 strokes at 1200 rpm using a Teflon-glass homogenizer and rotor and further subjected to three freeze-thaw cycles using liquid nitrogen. Membranes were separated by centrifugation at 40,000 g for 25 min at 4° C. The membrane pellet was washed and resuspended in ice-cold Tris-sucrose buffer (20 mM Tris, pH 7.4, and 250 mM sucrose) and frozen in liquid nitrogen. The total protein was determined using a Bradford assay (Bio-Rad).
T1 sequence (P61073 whole entry): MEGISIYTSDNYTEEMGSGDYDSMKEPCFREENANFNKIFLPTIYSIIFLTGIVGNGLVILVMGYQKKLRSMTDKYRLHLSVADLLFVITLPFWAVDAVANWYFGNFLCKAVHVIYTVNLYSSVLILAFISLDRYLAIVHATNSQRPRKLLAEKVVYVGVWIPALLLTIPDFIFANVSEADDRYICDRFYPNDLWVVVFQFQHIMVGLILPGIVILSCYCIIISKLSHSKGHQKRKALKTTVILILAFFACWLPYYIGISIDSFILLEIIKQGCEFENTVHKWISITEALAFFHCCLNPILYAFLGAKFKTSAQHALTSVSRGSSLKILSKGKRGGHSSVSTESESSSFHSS
Periplasmas (1:10) or ligands were pre-incubated with membranes in binding buffer (50 mM HEPES (pH 7.4), 1 mM CaCl2, 5 mM MgCl2, 100 mM NaCl, 0.5% bovine serum albumin) supplemented with 0.5% BSA for 1 h at 22° C. before the addition of [^125I]-CXCL12 (40 pM) or [^125I]-238D2 (3 nM) or [^125I]-238D4 (3 nM) for additional 2 h at 22° C. […] Plates were counted by liquid scintillation.

Assay [2] deals with T1, CXCR4. In words: Competition binding with [125I]-CXCL12 on membranes from HEK293T cells transiently expressing CXCR4. The arrangement: expressed in transfected cells; host or cells: HEK293T, transient (pcDNA3.1-CXCR4); displacement of specifically bound [125I]-CXCL12 (in words): dose or concentration left out as unconfirmed. Particulars: for pKi ([125I]-CXCL12): HEK293T-CXCR4 membranes; for Rel. potency, relative to monovalent 238D2: [125I]-CXCL12 displacement affinity, fold; for Displacem. (%) of [125I]-CXCL12: maximal displacement, a: no significant displacement at 0.5 μM, b/c(B-6): maximum not reached, displacement at 0.5 μM. As for the experimental part:
as §1
Membranes were then harvested over polyethylenimine (0.5%)-treated Whatman GF/C filter plates and washed three times with ice cold binding buffer containing 500 mM NaCl. Plates were counted by liquid scintillation. […]

The target of assay [3] is T1, CXCR4. As to the kind of experiment: Competition binding with [125I]-238D2 on membranes from HEK293T cells transiently expressing CXCR4. The arrangement: expressed in transfected cells; host or cells: HEK293T, transient (pcDNA3.1-CXCR4). As for the experimental part: as §1
(§2) Membranes were then harvested over polyethylenimine (0.5%)-treated Whatman GF/C filter plates and washed three times with ice cold binding buffer containing 500 mM NaCl. Plates were counted by liquid scintillation.

Assay [4] has as its target T1, CXCR4. In words: Competition binding with [125I]-238D4 on membranes from HEK293T cells transiently expressing CXCR4. On the set-up: expressed in transfected cells; host or cells: HEK293T, transient (pcDNA3.1-CXCR4). As for the experimental part: as §1, §2
The mark [5] stands for this setting: 238C5 only at high concentrations (≧100 nM).
Setting [6] is: maximal displacement, a: no significant displacement at 0.5 μM, b: displacement at 0.5 μM.

Marks after values point to notes of the source that are not given here.

B1: [^125I]-238D2: 125I-labeled NANOBODY 238D2 for competition binding studies (protein)
VHH: EVQLVESGGGLVQTGGSLRLSCAASGFTFSSYAMSWVRQAPGKGLEWVSGIKSSGDSTRYAGSVKGRFTISRDNAKNMLYLQMYSLKPEDTAVYYCAKSRVSRTGLYTYDNRGQGTQVTVSS
For B1, the “binding to CXCR4 membranes compared to CXCR3 membranes” value in the assay with CXCR4 [1] is recorded as “selectively bound”.

B2: 238D2-20GS-238C5: bivalent Nanobody, SEQ ID NO: 265 (protein)
chain: EVQLVESGGGLVQTGGSLRLSCAASGFTFSSYAMSWVRQAPGKGLEWVSGIKSSGDSTRYAGSVKGRFTISRDNAKNMLYLQMYSLKPEDTAVYYCAKSRVSRTGLYTYDNRGQGTQVTVSSGGGGSGGGGSGGGGSGGGGSEVQLMESGGGLVQAGGSLRLACAASGFTFEDYAIGWFRKAPGKEREGVSCISGSDGSTTYADSVKGRFTISTDNAKNTVYLEMNSLKPEDTAVYYCAQQYGVGGRVVCPGPYEYDVWGQGTQVTVSS
modifications: Nanobodies
For B2, in the assay with CXCR4 [2], the “pKi ([125I]-CXCL12)” value came out at 7.35 ± 0.07; the “Rel. potency, relative to monovalent 238D2” value was 0.18^a; the “Displacem. (%) of [125I]-CXCL12” value was 110 ± 2%.

B3: 238D2-20GS-238B10: bivalent Nanobody, SEQ ID NO: 266 (protein)
chain: EVQLVESGGGLVQTGGSLRLSCAASGFTFSSYAMSWVRQAPGKGLEWVSGIKSSGDSTRYAGSVKGRFTISRDNAKNMLYLQMYSLKPEDTAVYYCAKSRVSRTGLYTYDNRGQGTQVTVSSGGGGSGGGGSGGGGSGGGGSEVQLVESGGGFVQAGGSLRLSCETSGRPLLGYTIAWFRQVPGKEREFVAYHRWSDGANLYADSVKGRFTISGHNAKNTVSLQMNSLKPEDTAVYYCAAARMTTSNDKEYLYWGQGTQVTVSS
modifications: Nanobodies
Turning to B3, in the assay with CXCR4 [2], the “pKi ([125I]-CXCL12)” value is listed as below 7.00; the “Rel. potency, relative to monovalent 238D2” value is reported as <0.1^a; the “Displacem. (%) of [125I]-CXCL12” value is 43 ± 11^c %.

B4: 237D2: selected Nanobody, SEQ ID NO: 241 (protein)
VHH: EVQLVESGGGLVQPGGSLRLSCAASGFTFDDYAMSWVRQAPGKGLEWVSAISWNGGSTDYADSVKGRFTISRDNAKNTLYLQMNSLKSEDTAEYYCARDQGPFYSGTYYYTRQYGYRGQGTQVTVSS
modifications: Nanobodies
Turning to B4, in the assay with CXCR4 [2], the “pKi ([125I]-CXCL12)” value is on record as below 6.3 and the “Displacem. (%) of [125I]-CXCL12” value is 0^a %. In the assay with CXCR4 [2] (purified Nanobodies), the “displacement of specifically bound [125I]-CXCL12 (in words)” value is reported as “unable to displace”. Moreover, the “displacement of [125I]-238D2 (in words)” value in the assay with CXCR4 [3] (setting [5]) is reported as “unable to inhibit”. In addition, the “pKi ([125I]-238D2)” value in the assay with CXCR4 [3] (HEK293T-CXCR4 membranes) is listed as below 6.3. The “Displacem. (%) of [125I]-238D2” value with CXCR4 [3] (setting [6]) is 0^a %. Further, the “displacement of [125I]-238D4 (in words)” value with CXCR4 [4] (setting [5]) was “unable to inhibit”. Further, the “pKi ([125I]-238D4)” value in the assay with CXCR4 [4] (HEK293T-CXCR4 membranes) is on record as below 6.3. Besides, the “Displacem. (%) of [125I]-238D4” value with CXCR4 [4] (setting [6]) is listed as 0^a %.
